Measured values from article PMC12241816.

Molecular target: T1, recombinant KDM5B (human), Q9UGL1
T1 chain: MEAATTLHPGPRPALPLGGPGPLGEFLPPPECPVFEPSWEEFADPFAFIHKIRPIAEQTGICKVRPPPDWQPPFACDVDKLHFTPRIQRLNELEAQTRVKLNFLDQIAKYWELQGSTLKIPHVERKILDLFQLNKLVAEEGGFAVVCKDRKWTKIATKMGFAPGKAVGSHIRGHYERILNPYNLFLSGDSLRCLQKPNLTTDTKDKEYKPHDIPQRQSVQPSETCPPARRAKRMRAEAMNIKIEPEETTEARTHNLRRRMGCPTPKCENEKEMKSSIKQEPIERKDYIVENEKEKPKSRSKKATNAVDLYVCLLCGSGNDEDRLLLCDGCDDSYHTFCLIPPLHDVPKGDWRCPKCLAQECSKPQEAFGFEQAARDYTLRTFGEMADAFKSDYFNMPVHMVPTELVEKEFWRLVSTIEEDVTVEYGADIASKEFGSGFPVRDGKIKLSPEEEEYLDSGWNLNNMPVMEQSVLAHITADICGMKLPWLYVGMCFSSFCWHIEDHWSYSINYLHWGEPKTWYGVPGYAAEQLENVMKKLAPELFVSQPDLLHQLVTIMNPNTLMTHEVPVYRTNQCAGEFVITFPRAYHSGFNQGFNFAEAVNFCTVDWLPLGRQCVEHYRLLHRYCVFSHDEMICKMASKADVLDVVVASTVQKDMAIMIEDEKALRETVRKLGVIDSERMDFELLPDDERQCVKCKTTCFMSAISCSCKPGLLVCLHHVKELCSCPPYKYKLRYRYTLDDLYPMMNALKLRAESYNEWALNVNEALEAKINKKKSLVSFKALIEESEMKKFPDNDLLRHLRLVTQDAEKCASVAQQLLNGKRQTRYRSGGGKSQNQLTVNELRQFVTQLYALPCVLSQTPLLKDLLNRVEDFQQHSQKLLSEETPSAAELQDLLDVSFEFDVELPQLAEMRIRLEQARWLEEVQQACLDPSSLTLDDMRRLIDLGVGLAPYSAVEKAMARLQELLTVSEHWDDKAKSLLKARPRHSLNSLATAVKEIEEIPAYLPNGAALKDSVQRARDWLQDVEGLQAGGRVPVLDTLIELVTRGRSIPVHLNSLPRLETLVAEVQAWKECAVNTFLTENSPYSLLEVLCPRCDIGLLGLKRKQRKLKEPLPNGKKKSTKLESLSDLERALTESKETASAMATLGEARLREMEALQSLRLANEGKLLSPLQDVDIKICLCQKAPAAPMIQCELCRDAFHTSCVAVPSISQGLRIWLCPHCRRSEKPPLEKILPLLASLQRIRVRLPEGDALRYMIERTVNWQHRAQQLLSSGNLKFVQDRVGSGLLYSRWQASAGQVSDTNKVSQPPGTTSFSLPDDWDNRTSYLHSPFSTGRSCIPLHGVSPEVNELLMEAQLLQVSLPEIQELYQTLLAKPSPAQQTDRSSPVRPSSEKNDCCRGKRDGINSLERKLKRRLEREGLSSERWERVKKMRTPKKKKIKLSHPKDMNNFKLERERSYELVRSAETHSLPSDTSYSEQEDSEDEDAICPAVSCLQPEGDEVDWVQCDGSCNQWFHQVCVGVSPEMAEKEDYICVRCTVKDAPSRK
Experiment: native gel or EMSA
Conditions: remark: other sources report otherwise

stoichiometry N: 2
B1: recombinant KDM5B, Q9UGL1 1-1544 (natural protein)
chain: T1 chain
